For 5 sequences, Kd results are on record in the Immune Epitope Database (IEDB).

In one assay the target is HLA-B*48:01. Briefly: IEDB peptide-MHC binding, purified MHC/direct/fluorescence; filed as Kd, often an IC50 or EC50 that approximates it; ≥ and ≤ were set here for values at or beyond the usual limits of such assays. As to conditions: source organism: Marburg virus - Musoke, Kenya, 1980.
For assay [1], the target named is HLA-B*18:01. Described as above. As to conditions: source organism: Marburg virus - Musoke, Kenya, 1980.
For another assay, the target named is HLA-B*40:01. Described as above. Conditions: source organism: Marburg virus - Musoke, Kenya, 1980.
In a further assay the target is HLA-B*07:02. Described as above. As to conditions: source organism: Marburg virus - Musoke, Kenya, 1980.
The next assay concerns the target HLA-B*27:05. The description is as above. As to conditions: source organism: Marburg virus - Musoke, Kenya, 1980.
The target in assay [2] is HLA-B*57:01. Described as above. As to conditions: source organism: Marburg virus - Musoke, Kenya, 1980.
Assay [3] has as its target HLA-A*02:01. Described as above. Conditions: source organism: Marburg virus - Musoke, Kenya, 1980.
Another assay concerns the target HLA-A*11:01. The description is as above. As to conditions: source organism: Marburg virus - Musoke, Kenya, 1980.
The target of the next assay is HLA-A*26:02. The description is as above. Conditions: source organism: Ravn virus - Ravn, Kenya, 1987.
Assay [4] deals with HLA-A*68:02. Described as above. As to conditions: source organism: Marburg virus - Musoke, Kenya, 1980.
Assay [5] addresses HLA-A*31:01. The description is as above. As to conditions: source organism: Marburg virus - Musoke, Kenya, 1980.
Assay [6] addresses HLA-B*15:17. Described as above. Conditions: source organism: Marburg virus - Musoke, Kenya, 1980.
The target in assay [7] is HLA-A*26:01. Described as above. Conditions: source organism: Ravn virus - Ravn, Kenya, 1987.
The target of the next assay is HLA-A*01:01. The description is as above. Conditions: source organism: Marburg virus - Musoke, Kenya, 1980.
In a further assay the target is HLA-B*58:01. Described as above. Conditions: source organism: Marburg virus - Musoke, Kenya, 1980.
For a further assay, the target named is HLA-B*08:03. The description is as above. Conditions: source organism: Ravn virus - Ravn, Kenya, 1987.
For assay [8], the target named is HLA-A*03:01. The description is as above. Conditions: source organism: Marburg virus - Musoke, Kenya, 1980.
The target in assay [9] is HLA-A*69:01. Described as above. Conditions: source organism: Marburg virus - Musoke, Kenya, 1980.
Assay [10] has as its target HLA-B*15:01. The description is as above. Conditions: source organism: Marburg virus - Musoke, Kenya, 1980.
The next assay deals with HLA-B*08:01. Described as above. Conditions: source organism: Ravn virus - Ravn, Kenya, 1987.
For assay [11], the target named is HLA-B*46:01. The assay is described as above. As to conditions: source organism: Marburg virus - Musoke, Kenya, 1980.
The next assay has as its target HLA-C*05:01. The assay is described as above.
The target in assay [12] is HLA-A*02:01. The experiment in a line: IEDB peptide-MHC binding, purified MHC/competitive/fluorescence; filed as Kd, often an IC50 or EC50 that approximates it; ≥ and ≤ were set here for values at or beyond the usual limits of such assays.
In the next assay the target is HLA-A*02:06. Briefly: IEDB peptide-MHC binding, purified MHC/competitive/radioactivity; filed as Kd, often an IC50 or EC50 that approximates it; ≥ and ≤ were set here for values at or beyond the usual limits of such assays. As to conditions: source organism: Vaccinia virus Copenhagen.
For assay [13], the target named is HLA-A*02:03. The description is as above. As to conditions: source organism: Vaccinia virus Copenhagen.
The next assay concerns the target HLA-A*02:02. The assay is described as above. Conditions: source organism: Vaccinia virus Copenhagen.
Assay [14] has as its target HLA-B*18:01. Briefly: IEDB peptide-MHC binding, purified MHC/competitive/fluorescence; filed as Kd, often an IC50 or EC50 that approximates it; ≥ and ≤ were set here for values at or beyond the usual limits of such assays.
A further assay has as its target HLA-B*51:01. Described as above.
The target in assay [15] is HLA-B*57:01. The description is as above.
Assay [16] deals with HLA-A*26:01. The description is as above.
The next assay has as its target HLA-A*02:11. The assay is described as above. As to conditions: source organism: Vibrio parahaemolyticus K5030.
For a further assay, the target named is HLA-A*29:02. The description is as above. Conditions: source organism: Vibrio parahaemolyticus K5030.
For another assay, the target named is HLA-A*02:19. The assay is described as above.
The next assay addresses HLA-B*39:01. The assay is described as above.
In the next assay the target is HLA-B*27:03. The assay is described as above.
Assay [17] deals with HLA-A*03:01. Described as above. Conditions: source organism: Vibrio parahaemolyticus K5030.
For a further assay, the target named is HLA-A*02:12. Described as above.
For assay [18], the target named is HLA-B*15:01. The assay is described as above.
The next assay addresses HLA-A*24:03. Described as above.
Assay [19] deals with HLA-B*46:01. The description is as above.
Assay [20] concerns the target HLA-A*68:02. The description is as above. As to conditions: source organism: Influenza A virus (A/swine/Italy/1513-1/1998(H1N1)).
Assay [21] has as its target HLA-A*31:01. The assay is described as above. As to conditions: source organism: Influenza A virus (A/swine/Italy/1513-1/1998(H1N1)).
Assay [22] addresses HLA-B*15:17. Described as above. As to conditions: source organism: Influenza A virus (A/swine/Italy/1513-1/1998(H1N1)).
The target of assay [23] is HLA-A*02:03. The description is as above. As to conditions: source organism: Influenza A virus (A/swine/Italy/1513-1/1998(H1N1)).
The target in assay [24] is HLA-A*69:01. The assay is described as above. As to conditions: source organism: Influenza A virus (A/swine/Italy/1513-1/1998(H1N1)).
[25] abbreviates: source organism: Vibrio parahaemolyticus K5030.
Where [26] appears, read: source organism: Influenza A virus (A/swine/Italy/1513-1/1998(H1N1)).

For orientation: Kd means the concentration at which binding is half-saturated. For QVGIFLICK, the Kd with HLA-B*48:01, with HLA-B*18:01 [1], in the assay with HLA-B*40:01, with HLA-B*07:02, in the assay with HLA-B*27:05 and in the assay with HLA-B*57:01 [2] was not below 20 µM in each case. Moreover, the Kd with HLA-A*02:01 [3] was not below 20 µM; with HLA-A*11:01, 2.8 µM; with HLA-A*26:02, not below 20 µM; with HLA-A*68:02 [4], not below 20 µM; with HLA-A*31:01 [5] it was not below 20 µM; with HLA-B*15:17 [6], not below 20 µM. The Kd with HLA-A*26:01 [7], in the assay with HLA-A*01:01, with HLA-B*58:01, with HLA-B*08:03, with HLA-A*03:01 [8] and in the assay with HLA-A*69:01 [9] was not below 20 µM each time. The Kd with HLA-B*15:01 [10], with HLA-B*08:01 and with HLA-B*46:01 [11] was not below 20 µM throughout.

FPSVFINPI had a Kd with HLA-C*05:01 (source organism: Vaccinia virus Copenhagen) not below 20 µM.

Regarding FVDTMSIYI, the Kd in the assay with HLA-A*02:01 [12] (source organism: Variola virus) turned out to be 0.0004 µM; with HLA-A*02:06, 0.0161 µM; with HLA-A*02:03 [13], 0.37 µM; in the assay with HLA-A*02:02, 0.0207 µM; with HLA-C*05:01 (source organism: Variola virus), 0.002 µM.

WLGDVWQEK: the Kd is not below 20 µM in the assay with HLA-B*18:01 [14] (setting [25]); not below 20 µM in the assay with HLA-B*51:01 (setting [25]); not below 20 µM with HLA-B*57:01 [15] (setting [25]); not below 20 µM with HLA-A*02:01 [12] (setting [25]); not below 20 µM in the assay with HLA-A*26:01 [16] (setting [25]); 0.0251 µM with HLA-A*02:11. For the same sequence, the Kd in the assay with HLA-A*29:02, in the assay with HLA-A*02:19 (setting [25]), with HLA-B*39:01 (setting [25]), with HLA-B*27:03 (setting [25]), in the assay with HLA-A*03:01 [17] and with HLA-A*02:12 (setting [25]) was not below 20 µM throughout. The Kd with HLA-B*15:01 [18] (setting [25]), in the assay with HLA-A*24:03 (setting [25]) and with HLA-B*46:01 [19] (setting [25]) was not below 20 µM throughout.

For the sequence MMWEINGPK, the Kd with HLA-B*18:01 [14] (setting [26]) is not below 20 µM; with HLA-B*51:01 (setting [26]), not below 20 µM; with HLA-B*57:01 [15] (setting [26]), not below 20 µM; with HLA-A*68:02 [20], not below 20 µM; with HLA-A*31:01 [21], 0.0751 µM; in the assay with HLA-B*15:17 [22], not below 20 µM. Besides, the Kd with HLA-A*02:03 [23], with HLA-A*26:01 [16] (setting [26]), with HLA-A*02:19 (setting [26]), in the assay with HLA-B*39:01 (setting [26]), with HLA-B*27:03 (setting [26]) and in the assay with HLA-A*02:12 (setting [26]) was not below 20 µM in each case. The Kd with HLA-A*69:01 [24], with HLA-B*15:01 [18] (setting [26]), in the assay with HLA-A*24:03 (setting [26]) and in the assay with HLA-B*46:01 [19] (setting [26]) was not below 20 µM in each case.
